We go through 30 sequences from the nanobody polyreactivity screen of Harvey et al. (2022).

This series in a line: yeast display, Sf9 membrane polyspecificity reagent, FACS + sequencing; frameworks hold sequencing errors. The essentials:
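Galactose-induced (36–48 hours) yeast carrying a synthetic nanobody display library were exposed to 10% biotinylated, detergent-solubilized Sf9 membrane reagent at 4 °C for 1 hour. FACS followed streptavidin microbead enrichment, using low and high (top ~1%) gates for expression (anti-HA) and reagent binding (streptavidin). Colony PCR, MiSeq 2 × 250 sequencing and CDR-length filtering followed. Labels for polyreactivity reflect the gate of origin.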
As to “QVQLVESGGGLVQAGGSLRLICAASGFIFGNYAMGWYRQAPGKERELVATITWRGGSTYYADSVKGRFTISRDNAKNTVYLQMNSLKPEDTAVYYCARPYASYRSFYYYGYWGQGTQVTVSS”, the “polyreactivity (PSR sort gate)” value is “high polyreactivity”.

Turning to “QVQLVESGGGLVQAGGSLRLICAASGFIFGSYAMGWYRQAPAKERELVAAINYDGGSTYYADSVKGRFTISRDNAKNTVYLQMNSMKPEDTAVYYCAADLYYTHMDYWGQGTQVTVSS”, the “polyreactivity (PSR sort gate)” value is “low polyreactivity”.

On to “QVQLVESGGGLVQAGGSLRLICAASGFIFIGYAMGWYRQARGKERELVAAISWRGGTYYADSVKGRFTISRDNAKNSVYLQMNSLKPEDTAVYYCAARTRNAVRSGSGKYDYCGQGTQVTVSS”, for which the “polyreactivity (PSR sort gate)” value was “low polyreactivity”.

Consider “QVQLVESGGGLVQAGGSLRLICAASGFIFKWNAMGWYRQAPGKERELVAAITSGGGTYYADSVKGRFTISRDNAKNTVYLQMNSLKPEDTAVYYCAALGRYWPARRFDYWGQGTQVTVSS”, for which the “polyreactivity (PSR sort gate)” value is “high polyreactivity”.

As for “QVQLVESGGGLVQAGGSLRLICAASGFIFSAYAMGWYRQAPGKERELVAAISYSGGTTYYADSVKGRFTISRDNAKNTVYLQMNSLKPEDTAVYYCAAGVGYWGQGTQVTVSS”, the “polyreactivity (PSR sort gate)” value was “high polyreactivity”.

Turning to “QVQLVESGGGLVQAGGSLRLICAASGFIFSTYAMGWYRQAPGKERELVAAISWSGGRTNYADSVKGRFTISRDNAKNTVYLQMNSLKPEDTAVYYCARYGHSGRQYKYDYWGQGTQVTVSS”, the “polyreactivity (PSR sort gate)” value was “high polyreactivity”.

In the case of “QVQLVESGGGLVQAGGSLRLICAASGFIFWDNAMGWYRQAPGKERELVAAISKSGTRTYYADSVKGRFTISRDNEKNTVYLQMNSLKPEDTAVYYCAAEGSGYEYYYWGQGTQVTVSS”, the “polyreactivity (PSR sort gate)” value is “high polyreactivity”.

As for “QVQLVESGGGLVQAGGSLRLICAASGFSFRYYDMGWYRQAPGKERELVAAISRSGGRTYYADSVKGRFTISRDNAKNSVYLQMNSLNPEDTAVYYCNAVYNVVLSRVIYARGYWGQGTQVTVSS”, the “polyreactivity (PSR sort gate)” value was “high polyreactivity”.

Consider “QVQLVESGGGLVQAGGSLRLICAASGFTFASYGMGWYRQARGKERELVAAISWSGGRTYYADSVKGRFTISRDNATNTVYLQMNSLKPEDSAVYYSNAYWNPASKYDYWGQGTQVTVSS”, for which the “polyreactivity (PSR sort gate)” value was “high polyreactivity”.

As for “QVQLVESGGGLVQAGGSLRLICAASGFTFAYYAMGWYRQATGKERELVAAISSGGGTYYADSVKGRFTISRDNAKNTVYLQMNSLKPEDTAVYYCNARYYFVFGRYNYWGQGTQVTVSS”, the “polyreactivity (PSR sort gate)” value is on record as “high polyreactivity”.

For the sequence “QVQLVESGGGLVQAGGSLRLICAASGFTFGYNDMGWYRQAPGKERELVATITRSAGRTYYADSVKGRFTISRDNAKNTVYLQMNSLKPEDTAVYYCASSYWDTEPGYREYDYWGQGTQVTVSS”, the “polyreactivity (PSR sort gate)” value is “low polyreactivity”.

For “QVQLVESGGGLVQAGGSLRLICAASGFTFHSYAMGWYRQAPGKERELVAAITTDGSTYYADSVKGRFTISRDNAKNTVYLQMTSLKPEDTAVYYCAAGKAYWYARKPYARYYYWGQGTQVTVSS”, the “polyreactivity (PSR sort gate)” value is on record as “high polyreactivity”.

As for “QVQLVESGGGLVQAGGSLRLICAASGFTFRNNAMGWYRQAPGKERELVARITFRGGSTYYADSVKGSFTISRDNAKNTVYLQMNSLNPEHTAVYYCAVDWLSVTSTIKFVMDYWGQGTQVTVSS”, the “polyreactivity (PSR sort gate)” value was “low polyreactivity”.

“QVQLVESGGGLVQAGGSLRLICAASGFTFRVYSMGWYRQAPGKEREFVASISWTGDTTYYADSVKGRFTISRDNAKNTVYLQMNSLKPEDTEVYYCAVDTILGYDYWGQVTQVTVSS”: the “polyreactivity (PSR sort gate)” value is listed as “low polyreactivity”.

For the sequence “QVQLVESGGGLVQAGGSLRLICAASGFTFYIYAMGWYRQAPGKERELVAAINFRGGSTYYADSVKGRFTLSRDNAKNTVYLQMNSLKPEDTAVYYCAAVPRTYSGYYYWGQGTKVTVSS”, the “polyreactivity (PSR sort gate)” value is on record as “high polyreactivity”.

On to “QVQLVESGGGLVQAGGSLRLICAASGFTIGPYAMGWSRQAPGKERELVAAITIRGGSTYADSVKGRFTISRDNAKNTVYFQMNSLKTEDTAVSYCATVRALEYNYWGQGTQVTVSS”, for which the “polyreactivity (PSR sort gate)” value was “low polyreactivity”.

Consider “QVQLVESGGGLVQAGGSLRLICAASGFTIVPNAMGWYRQAPGKERELVAAISRSTGGTYYADSVKGRFTISRDNAKNTVYLQMNSLKPEDTAVYYCAAEYWYWTYGMDYWGQGTQVTVSS”, for which the “polyreactivity (PSR sort gate)” value is listed as “high polyreactivity”.

“QVQLVESGGGLVQAGGSLRLICAASGFTIWWYAMGWYRQAPGKERELVATITSGGRTYYADSVKGRFTISRDNAKNTVYLQMNSLKPEDTAVYYCAAESEVGYVYDPMYYLGQGTQVTVSS”: the “polyreactivity (PSR sort gate)” value is reported as “high polyreactivity”.

For the sequence “QVQLVESGGGLVQAGGSLRLICAASGGIFATYAMGWYRQAPGKEMELVAAITKRGGSTYYADSVKGRFTISRDNAKNTVYLQMNSLTPEDTAVYYCAAKGYRWFRLGGYYFKFDYWGQGTQVTVSS”, the “polyreactivity (PSR sort gate)” value is reported as “high polyreactivity”.

Consider “QVQLVESGGGLVQAGGSLRLICAASGIIFDGNAMGWYRQAPGKERELVASITSDSSTNYADSVKGRFTISRDNAKNTVYLQMNSLKPEDTAVYYCAADHWIAPRRDYWGQGTQVTVSS”, for which the “polyreactivity (PSR sort gate)” value is listed as “low polyreactivity”.

Consider “QVQLVESGGGLVQAGGSLRLICAASGIIFGGYDMGWYRQAPGKERELVAGIRSGGSTYYADSVKGRFTISRDNAKNTVYLQMNSLKPEDTAVYYCAKYVPIPYYSYLFGSYDYWGQGTQVTVSS”, for which the “polyreactivity (PSR sort gate)” value is reported as “low polyreactivity”.

With “QVQLVESGGGLVQAGGSLRLICAASGIIFSSNAMGWSRQAPGKERELVAAISNTGRTNYADSVKGRFTISRDNAKNTVYLQLNSLKPEDTAVYYCAARLSRRYYSYYYWGQGTQVTVSS”, the “polyreactivity (PSR sort gate)” value was “high polyreactivity”.

As to “QVQLVESGGGLVQAGGSLRLICAASGIIFTYNAMGWYRQAPGKERELVAAINGGSSTNYADSVKGRFTISRDNAKNTVYLQMNSLKPEDTAVYDCAADVIPDGVKKPRMYYWGQGTQVTVSS”, the “polyreactivity (PSR sort gate)” value is “low polyreactivity”.

Turning to “QVQLVESGGGLVQAGGSLRLICAASGIIFVPNAMGWYSQAPGKERELVAAIDRGGGTTYADSVKGRFTISRDNAKNTVYLQMNSLKPEDTAVYYCAAAWGVGPDQGHDYWGQGTQVTVSS”, the “polyreactivity (PSR sort gate)” value is given as “low polyreactivity”.

Consider “QVQLVESGGGLVQAGGSLRLICAASGITFAWYAMGWYRQAPGKERELVAAIDDRGGSTYYADSVKWRFTISRDNAKNTVYLQMYSLKPEDTAVYYCNADTPSYEPYRLDYLGQGTQVTVSS”, for which the “polyreactivity (PSR sort gate)” value is recorded as “low polyreactivity”.

“QVQLVESGGGLVQAGGSLRLICAASGITFNKYSMGWYRQAPGKERELVAAISSRGCSTYYADSVKGRFTISRDNAKNTVYLQMNSLKPEYTAVYYCAAERGTTYAYDYWGQGTQVTVSS”: the “polyreactivity (PSR sort gate)” value is “high polyreactivity”.

On to “QVQLVESGGGLVQAGGSLRLICAASGITFTGYAMGWYRQAPGKERELVAAITRRGGRTYYADSVKGRFTISRDNAKNTVYLQMNSLKPEDTAVYYCARDNGSPYHYYYWGQGTQVTVSS”, for which the “polyreactivity (PSR sort gate)” value is “high polyreactivity”.

As to “QVQLVESGGGLVQAGGSLRLICAASGITFYYYAMGWYRQAPGKERELVAAITFTGGSTYYADSVKGRFTISRDNAKNTVYLQMNSLKPEDTAVYYCNRLGPLGDQQQYDYWGQGTQVTVSS”, the “polyreactivity (PSR sort gate)” value is given as “low polyreactivity”.

As for “QVQLVESGGGLVQAGGSLRLICAASGLIFWGYAMGWYRQAPGKERELVAAISSSGGSTYYADSVKGRFTISRDNAKNTVYLQINSLKPEDTAVYYCNADYTYYPGYDYWGQGTLVTVSS”, the “polyreactivity (PSR sort gate)” value is “low polyreactivity”.

For “QVQLVESGGGLVQAGGSLRLICAASGLTFSGYVMAWYRQAPGKERELVAAISLSGGSTYYADSVKGRFTISRDNAKNTVYLQMNSLKPEDTAVYYCAASTRFYNSYRREYWGQGTQVTVSS”, the “polyreactivity (PSR sort gate)” value was “high polyreactivity”.
